Drawing on a protein production outcome set (Wang et al. 2014), this text covers protein production for 18 sequences.

This data set is described as follows: label from the status in PepcDB records.
Regarding “MGTKKNFVLDTNVILHDYNCLKNFQENDIYLPIVVLEELDKFKKGNEQINYNAREFVRELDLITDDSLFTHGAPLGEGLGKLFIVTGDSEAPKVHESFPARKPDHQILAVAEYLARKYPKMKNILVTKDVNLRMKARSIGILCEDYITDKVVNVDIFE”, the protein production entry was “failed”.
As for “MPQVETTSVFRADLLKEMESSTGTAPASTGAENLPAGSALLVVKRGPNAGARFLLDQPTTTAGRHPESDIFLDDVTVSRRHAEFRINEGEFEVVDVGSLNGTYVNREPRNAQVMQTGDEIQIGKFRLVFLAGPAELEHHHHHH”, the protein production result is reported as “not failed”.
The entry for “MLIRPTLEPDITWLPDVERSAAQAFVSWPALAWLAQGDVMDCAAHRAFVEAGGSWVAQDATGRIVGFACARLADQALHLHEISVRQEAQGQGVGRRLLQQVVDAGRCAGVRELTLTTFVDVPWNAPFYARFGFEMLQESRLCERLRGILASEHAHGLLGRCAMRLNVGL” is “failed”; for “MRKDETSNTSPDISVAQPASALRYHLRPPRRNDGAAIHQLVSECPPLDLNSLYAYLLLCEHHAHTCVVAESPGGRIDGFVSAYLLPTRPDVLFVWQVAVHSRARGHRLGRAMLGHILERQECRHVRHLETTVGPDNQASRRTFAGLAGERGAHVSEQPFFDRQAFGGADHDDEMLLRIGPFTHPPH” it is “not failed”; for “MKEGIELNTKKRIIGLDFARALAMFGMLLVNFMVITGAEGNGPPFLITLMSLFEGRASALFVILAGIGISLMTRSSVARNEKIKISNSRKIIWKRALFLFILGLLLYVMEWTGDILHYYGVYLFVAALLITVRKKALLFLSIIILLLAQSLQLTFNAFEGWGGPTPFINYVDFWTVNGFLRNLFFNGYHPFSHRFSFFLIGMIIGRLDLHNKKIRDRLLLLGITFTILIELLSKGLTYYFIPHIGKAAATFLFNTGPVLPNVLYILSATGSAIAILILCLYITEKYENNWFVTSIIQTGQLTLTHYVSHVFIGIGTLILFNRMEHQTLLFVLLFATVFFIFSILFSVLWRKKFSRGPIEWIMRKLAS” it is “not failed”.
As for “MRTPCSQHRRDRPSAIGSQLPDADTLDTRQPPLQEIPISSFADKTFTAPAQIRNFCIIAHIDHGKSTLADRMLQLTGVVDERSMRAQYLDRMDIERERGITIKAQNVRLPWRVDKTDYVLHLIDTPGHVDFTYEVSRALEACEGAVLLVDAAQGIEAQTLANLYLALDRDLHIIPVLNKIDLPAADPDRYAAEMAHIIGCEPAEVLRVSGKTGEGVSDLLDEVVRQVPPPQGDAEAPTRAMIFDSVYDIYRGVVTYVRVVDGKISPRERIMMMSTGATHELLEVGIVSPEPKPCEGLGVGEVGYLITGVKDVRQSKVGDTVTSLSRARGAAAEALTGYREPKPMVYSGLYPVDGSDYPNLRDALDKLQLNDAALTYEPETSVALGFGFRCGFLGLLHMEITRERLEREFGLDLISTSPNVVYRVHKDDGTEIRVTNPSDWPEGKIRTVYEPVVKTTIIAPSEFIGTIMELCQSRRGELGGMDYLSPERVELRYTMPLGEIIFDFFDALKSRTRGYASLDYEEAGEQEAALVKVDILLQGEAVDAFSAIVHKDTAYAYGNKMTTKLKELIPRQQFEVPVQAAIGSKIIARENIRAIRKDVLSKCYGGDITRKRKLLEKQKEGKKRMKTIGRVEVPQEAFVAALSTDAAGDKGKK”, the entry is “failed”; as for “MILPPIPTPFDREGRLDEEAFRELAQALEPLVDGLLVYGSNGEGVHLTPEERARGLRALRPRKPFLVGLMEETLPQAEGALLEAKAAGAMALLATPPRYYHGSLGAGLLRYYEALAEKMPLFLYHVPQNTKVDLPLEAVEALAPHPNVLGIKDSSGDLSRIAFYQARLQEFRVYTGHAPTFLGALALGAEGGILAAANLAPRAYRALLDHFREGRLAEAQELQKKLFPLGDLLAKGGVPLLKQALRHLGLPAGYPRPPYPAESPLWERFLPVLEGLKEEGWVL”, “not failed”; as for “LTFETLAREWFAYNSPRWAESTTYKAKLYMENDLIPGIGARPVKALTRPDLVDLVRKVEARGTLNAAGKIRQWLHQIFRYGLAKGVVESNPATDLDVVAAP”, “failed”.
The entry for “MATAPRPLREQYLHFQPISTRWHDNDIYGHVNNVTYYAFFDTAVNTYLIERGGLDIQGGEVIGLVVSSSCDYFAPVAFPQRIEMGLRVARLGNSSVQYELALFLEGQREACAAGRFVHVFVERRSSRPVAIPQELRDALAALQSSAQ” is “not failed”; for “TGELEVVQQAVKEMNDPSQPNEEGITALHNAICGANYSIVDFLITAGANVNSPDSHGWTPLHCAASCNDTVICMALVQHGAAIFATTLSDGATAFEKCDPYREGYADCATYLADVEQSMGLMNSGAVYALWDYSAEFGDELSFREGESVTVLRRDGPEETDWWWAALHGQEGYVPRNYFGLFPRVKPQRSKV” it is “failed”.
On to “MAVAAAKYTTGFWINTIVIILIIAYLVYQLYLYWKRGKISTQLDDDEFRAGMRKAQVIDVREKKEFDAGHILGARNIPYSQMKNRTQELRSDLPVYLYDQGRTFSGRAAMLLSKKGFTQLYILKNGYQRWTGKTKKTKY”, for which the protein production entry is given as “failed”.
On to “MNIAISGASGFIGKHLTEYLTEAGHRVVPLGRPMFREGTSGHLIQALSHCDVIINLAGAPIGKRWTPEYKKELYDSRIKVTHCIIRAMDAVKTKPRLMISASAVGYYPEEGTFDEYTNTRGSGFLAELCYAWEKEARRCPSQTRLVITRFGIVLSPDGGAMEQMLRPLRITRVAGVIGPGTQPFPWIAIQDLCRAMEFIIRHEEASGVFNLVAPQQVSQYAFTQAMAARYHAWMKVVVPRWFFRMRYGEAASFLASGQNVRPTRLLEAGFRFAKPTIEDFFEGTDHAVVDRLDLHRYMGTWYEIARFDHRFERGLSEVTATYTLMPDGTVRVENRGCKHKKPYDVCKTAEGRAKIPDPSQPGKLKVSFFLSFYSDYYVLELDQDEYNYALIGSSSDKYLWILSRAPILPEEIKKKLLDAATRRGYDVKKLIWVEQREKKIM”, for which the protein production result was “failed”.
“MARLIIPCRSSSLARVNLLGLLSRAPVPVRSSCLRSSANRLTQHRPFLTSEAICLRKNRFLPHSVDTHKQNSRRLICSVATESVPDKAEDSKMDAPKEIFLKNYTKPDYYFETVDLSFSLGEEKTIVSSKIKVSPRVKGSSAALVLDGHDLKLLSVKVEGKLLKEGDYQLDSRHLTLPSLPAEESFVLEIDTEIYPHKNTSLEGLYKSSGNFCTQCEAEGFRKITFYQDRPDIMAKYTCRVEGDKTLYPVLLSNGNLISQGDIEGGRHYALWEDPFKKPCYLFALVAGQLVSRDDTFTTRSGRQVSLKIWTPAEDLPKTAHAMYSLKAAMKWDEDVFGLEYDLDLFNIVAVPDFNMGAMENKSLNIFNSKLVLASPETATDADYAAILGVIGHEYFHNWTGNRVTCRDWFQLSLKEGLTVFRDQEFSSDMGSRTVKRIADVSKLRIYQFPQDAGPMAHPVRPHSYIKVYEKVWLFTNSVLLYAGAEVVRMYKTLLGTQGFRKGIDLYFERHDEQAVTCEDFFAAMRDANNADFANFLQWYSQAGTPVVKVVSSYNADARTFSLKFSQEIPPTPGQPTKEPTFIPVVVGLLDSSGKDITLSSVHHDGTVQTISGSSTILRVTKKEEEFVFSDIPERPVPSLFRGFSAPVRVETDLSNDDLFFLLAHDSDEFNRWEAGQVLARKLMLNLVSDFQQNKPLALNPKFVQGLGSVLSDSSLDKEFIAKAITLPGEGEIMDMMAVADPDAVHAVRKFVRKQLASELKEELLKIVENNRSTEAYVFDHSNMARRALKNTALAYLASLEDPAYMELALNEYKMATNLTDQFAALAALSQNPGKTRDDILADFYNKWQDDYLVVNKWFLLQSTSDIPGNVENVKKLLDHPAFDLRNPNKVYSLIGGFCGSPVNFHAKDGSGYKFLGDIVVQLDKLNPQVKTPKLTCVFAVTYIM”: the protein production entry is “failed”.
Regarding “MAADYTHFIHRQHAPPEVCLSAFSGHNDALDFPDSEGSPVSQSLIAALQNPALFPHPVEGFQVIETHISWVLLTGPFAYKVKKPVNFGFLDFTSLDAREHFCGEELRLNQRLTEDLYLEVLPITGSAEAPVLGGDGPAIEYVLKMRQFPQSQLLSTLQANSELTTAHIDEMARQIAHFHLNAPKVPAEHEAGTPESVMAPVRQNFEQIRPFLSDKADLQQLEALEAWAETSFERLKPLLAQRKSEGFIRECHGDIHLGNATLIDGKVVIFDCIEFNEPFRFTDVYADTGFLAMDLEDRGLKSLARRFISQYLELTGDYQGLELLNFYKAYRALVRAKVSLFSMPAEATPVQRATTLRQYRNYANLAESYSTIPSRFLAITSGISAVGKSRVAMRLVEALGAVRLRSDVERKRLFGEQQVPNDPHAGIYSSEASSATYARLHEIAETILRAGFPVVIDATYLKRAQRDAAAKVAEATGTPCLIIDCNAPEAVVASWLAQRQADQNDPSDATLEVIANQQATREALTDEELLRSKRIETNESGSLDALVANIRQRLPGLLEHHHHHH”, the protein production result is on record as “failed”.
The entry for “MNFQRFKAIVKKEVIQLKRDRASFGIAIMMPIVMIFLFGYAVNTELSNISMTVLDQSNSIESRELIQSFQNTGYFKVVSRVKSIEEVREKMDKGKVHAAIVIPPDFSNKLQMREESNVQLLVDGSDPTTARTAFSSGVVSGQQYGMKKLQGFGEKTSSKFQEGGVNVNTRVLYNPNLRNQNFTIPGLIGLIMQNITILLTAFALVRERERGTIEQLTVSPLKAGEIILGKLVPYIFIGYIDFLFSLVLGIKWFNVPINGSIPLLLLLGFAFVICALAIGILISTISKTQLQAMQLTILVLLPSILLSGFVFPREAMPKVIQLIGNVLPLTYFLNILRGIITKGVGVQYLSRDIAAMCCLAVILLTLSIVRFRAKPYNS” is “failed”; for “MADSKEKLFSDFPAVSTEQWMEKITADLKGADFEKKLVWRTNEGFKVKPFYRQEDLEGLKTTEGLPGEFPYVRGTKKNDNTWFVRQEIKVECPKEANAKALDILNKGVDSLGFYVKKKDLSPEYIETLLNDICAECIELNFSTCQGHTVELAKLLVAYFQKKGYDLTKLQGSVNYDPMGKMMVKGKDLSNFITTAKELVEVLAPLPKFRCICVNAIELNNAGSYISQELGYALAWGNEYLSKLVEAGVPAALAAKKIKFNFGISSNYFLEIAKFRAARMLWADIVKEYHPQCNRQPECPNKAEDGTCLCACKMVAHAETSTFNLTLFDAHVNLLRTQTEAMSAALAGVNSITVTPFDKTYETPDDFSERIARNQQLLLKEECHFNKVVDPAAGSYFIENLTISIATQAWELFLKVEDEGGMLEAVKAGKVQEAINASNKARHDSVSKRKEILLGTNQYPNFNEKAGEKAPVEAKCCCGGNHDSCEKPFATLNFDRAASQFEALRLQTEKSGKRPKAFMLTIGNLAMRQARAQFSCNFLACAGYEVIDNLGFPTVEAGVEAAMKAGADIVVICSSDDEYAEYAIPAFKALDGRAIFIVAGAPACMEELKAAGIENFIHVRVNVLDTLKEYNAKLGIK” it is “failed”.
As for “MKHDKKNSKIIPFPNVKERLVHKGMGALKEKNYHEALRLFSEAKRYNDEESDIYLGMAICLLEIGELEEAKGICEKMLKEGHGHYFTVLQVYMTILIQLRQYEKVKETIEAVLEENKLPPESAEQFYKLLDFSRKMTEDPGPEDITEDLPETEEVDQERLLNDTEEQVKLLHGLKDRNLTSYIGLLKTILQNPSAHPVVKTMILQLLAESDHEKPTLVAKFGDSMTINPTETVKPDDMPILKHVLSVLDDTLGNENPTLYQAVEELWRRHIYVLYPFQPKYSNRELWAAALHKVGYEMHGIDIDKEELHILYEFNDRQLDEACALIKDIEEISYL”, the entry is “failed”.
As for “MRSPYLIGVFLAAGKSRRMGQNKLALPLKGENIGSLSLKTALSSRLDHVLVVERTEHASLEWIGAPYHAPPFQKRWSLHVCQDAEKGQGHSVSSGVRKAESMGADGIVILLADQPQLSVDHLNALVALAPESFAVSSFLGAFTPPIYFSSTCFPYVKGLKGDEGARRLLKSGQLGAGAVLEAKDSGELDDIDTPRGILEHHHHHH”, the entry is “not failed”.
